One substance from publication PMC4189797, “Mycoplasma synoviae enolase is a plasminogen/fibronectin binding protein” (BMC Veterinary Research, 2014) can be followed below.

In this data set the test system is O=C(O)[C@@H](CO)OP(=O)(O)O. The experiment in a line: purified protein. The note with it: 100 mM HEPES, 7.7 mM KCl, 10 mM MgCl2, pH 7.5, 30°C, 2-PGA 0.5, 1.5 and 2.0 mM.

In general, Km refers to the concentration of substrate that gives half-maximal velocity. As to “rMsEno (recombinant M. synoviae enolase) (Mycoplasmopsis synoviae 53)”, the Km stood at 1100 µM.
